Measurements as given in PMC4369318.

Biological target: protective antigen (PA63 as LTx) in plasma or serum of subjects with inhalation anthrax (Bacillus anthracis (secreted during infection of rhesus macaques and humans))
Assay: co-IP

Chain of protective antigen (PA63 as LTx) in plasma or serum of subjects with inhalation anthrax (Bacillus anthracis (secreted during infection of rhesus macaques and humans)) (P13423 30-764): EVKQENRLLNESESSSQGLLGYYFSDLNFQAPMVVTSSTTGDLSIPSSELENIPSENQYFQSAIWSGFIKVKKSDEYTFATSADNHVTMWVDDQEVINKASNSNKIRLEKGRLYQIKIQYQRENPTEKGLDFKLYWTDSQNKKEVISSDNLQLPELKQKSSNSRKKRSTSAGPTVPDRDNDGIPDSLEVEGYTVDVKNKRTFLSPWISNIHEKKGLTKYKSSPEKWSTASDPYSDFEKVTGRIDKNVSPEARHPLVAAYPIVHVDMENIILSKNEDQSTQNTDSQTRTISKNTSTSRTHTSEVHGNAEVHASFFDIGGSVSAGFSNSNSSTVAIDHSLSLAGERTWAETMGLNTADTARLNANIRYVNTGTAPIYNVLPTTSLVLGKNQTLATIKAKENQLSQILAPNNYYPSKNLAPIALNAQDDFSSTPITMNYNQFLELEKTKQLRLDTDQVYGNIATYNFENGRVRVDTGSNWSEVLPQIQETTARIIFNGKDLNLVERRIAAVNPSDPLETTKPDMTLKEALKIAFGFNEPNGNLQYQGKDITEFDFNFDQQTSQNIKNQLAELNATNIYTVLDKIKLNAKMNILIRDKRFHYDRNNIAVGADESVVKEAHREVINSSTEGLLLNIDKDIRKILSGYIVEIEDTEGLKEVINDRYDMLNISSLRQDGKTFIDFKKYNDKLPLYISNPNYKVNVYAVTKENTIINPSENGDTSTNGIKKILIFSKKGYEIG

Substance: lethal factor (LF) in plasma or serum of subjects with inhalation anthrax (from UniProt P15917 34-809) (enzyme)
- LTx as percent of total LF (animal 16N, terminal stage): 100%
- LTx as percent of total LF (animal 89N, terminal stage): 60%
